Earlier results on one substance are cited in paper PMC12860355.

Usually Kd stands for the constant that tells how readily two partners part at equilibrium.

The target in this data set is TATA-binding protein (Homo sapiens) (UniProt P20226).
Sequence of UniProt P20226 (P20226 whole entry): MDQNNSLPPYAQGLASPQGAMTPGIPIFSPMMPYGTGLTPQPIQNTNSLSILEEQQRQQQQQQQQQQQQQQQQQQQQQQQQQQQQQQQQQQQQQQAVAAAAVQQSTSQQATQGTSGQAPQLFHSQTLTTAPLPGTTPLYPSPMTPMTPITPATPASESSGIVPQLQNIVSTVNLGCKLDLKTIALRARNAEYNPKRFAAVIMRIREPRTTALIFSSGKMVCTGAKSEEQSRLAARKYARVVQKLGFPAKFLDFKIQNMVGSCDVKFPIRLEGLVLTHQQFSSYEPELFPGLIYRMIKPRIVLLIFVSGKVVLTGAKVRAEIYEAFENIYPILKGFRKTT

Take Importin 9 (from UniProt Q96P70): the Kd was 1 nM.
